# Results reported in PMC7857404.
# Biological target: SARS-CoV-2-3Q-FL spike (without 2P) (SARS-CoV-2) (UniProt P0DTC2)
# Assay: cryo-EM structure
substance,measurement,value
SARS-CoV-2-3Q-FL spike (without 2P) (from UniProt P0DTC2 14-1273) (natural protein),stoichiometry N,3
